Results: patent US20050148069A1, “IGF-1 instructs multipotent adult CNS neural stem cells to an oligodendroglial lineage” (priority 2003, published 2005)

System: adult hippocampus-derived neural progenitor cells
Assay: in vitro differentiation analysis of neural progenitor cells (immunocytochemistry for lineage markers)
Format: cell-based, rat
Description: The neural progenitor cells isolated from the hippocampus of female Fischer 344 used in this study have been characterized previously (Gage et al., 1995; Palmer et al., 1997). The whole brain-derived neural stem cells from PIO ICR mice were isolated and cultured according to the methods as described, with slight modifications. Cells were cultured as previously described (Gage et al., 1995; Ray et al., 1993). Cells between passages 10 and 20 were used for in vitro differentiation analyses. To induce differentiation, cells were plated into 4-well chamber slides at a density of 55,000-75,000 cells per well and were allowed to proliferate in N2-supplemented (Invitrogen) DMEM:F12 (Omega Scientific) medium containing 20 ng/ml FGF-2 (PeproTech, Inc.) for 24 hours. FGF-2 was then withdrawn and cells were subsequently treated with differentiation media. […] For IGF-induction experiments, cells were trypsinized, washed with 1× PBS, and plated into insulin-free N2 medium. […] In some cultures, BrdU (2.5 μM, Sigma) was added to label dividing cells, and Q-VD-OPh (2 μM, Enzyme Systems Products) was added to prevent apoptosis.
Cells were fixed with 4% paraformaldehyde, followed by immunocytochemical staining as described (Palmer et al., 1999). Labeled cells were visualized using a Nikon E800 upright microscope or a Nikon E600 inverted microscope (Nikon Inc.) and a Spot RT CCD camera (Diagnostic Instruments Inc.). 4′,6-diamidino-2-phenylindole (DAPI) was used to identify individual cells. Quantification of cell phenotypes was with StereoInvestigator (MicroBrightfield Inc.); for each marker, 500-1000 cells were sampled systematically from standardized fields at 40×magnification. For quantification of live/dead cells, images were taken of cultures live-stained with propidum iodide (1 μg/ml; Molecular Probes) and Hoescht 33342 (1 μg/ml; Sigma) at 10×magnification, and cells were counted using Image-Pro (Media Cybernetics). The following primary antibodies were used: rabbit anti-Tuj1 (1:7500;Covance), mouse anti-RIP (1:25-1:75; Hybridoma Bank); guinea pig anti-GFAP (1:500-1:2500; Advanced Immunochemical, Inc.); rabbit anti-MBP (1:500; Chemicon International Inc.), rat anti-BrdU (1:400; Accurate). Secondary antibodies were all from Jackson ImmunoResearch and used at 1:250 dilution. The detection of BrdU in cultured cells required treatment in 2 N HCL at 37° C. for 30 min (Palmer et al., 1999). All experiments were independently replicated at least 3 times.

B1: Noggin: extracellular protein that binds BMP ligands, BMP antagonist (protein, UniProt Q13253 28-232, looked up)
Noggin: QHYLHIRPAPSDNLPLVDLIEHPDPIFDPKEKDLNETLLRSLLGGHYDPGFMATSPPEDRPGGGGGAAGGAEDLAELDQLLRQRPSGAMPSEIKGLEFSEGLAQGKKQRLSKKLRRKLQMWLWSQTFCPVLYAWNDLGSRFWPRYVKVGSCFSKRSCSVPEGMVCKPSKSVHLTVLRWRCQRRGGQRCGWIPIQYPIISECKCSC
- differentiation or survival effects of Noggin alone (500 ng/ml Noggin alone, insulin-free media): did not display any enhanced differentiation or survival effects
- reversal of BMP2 inhibition of oligodendrocyte differentiation (Noggin 500 ng/ml with BMP2 50 ng/ml and IGF-I 500 ng/ml): efficiently reversed the inhibitory effects of BMP signaling
- percentage of oligodendrocytes vs IGF-I alone (Noggin 500 ng/ml with IGF-I 20-100 ng/ml): significant increase in the percentage of oligodendrocytes
- percentage of RIP+ oligodendrocytes vs IGF-I alone (Noggin 500 ng/ml with IGF-I 500-1000 ng/ml): did not result in a significant change
